Experimental data published in paper PMC9276737.

Tests used:
Conditions in all cases: 2 nM 32P-labelled DNA; binding buffer, salt, pH and temperature only by reference (refs 50, 51); native 6% polyacrylamide gel for EMSA
[1] = target: T1, PclR-His (Streptococcus pneumoniae R6) (UniProt Q8DP24); assay: DNase I footprinting
T1 sequence: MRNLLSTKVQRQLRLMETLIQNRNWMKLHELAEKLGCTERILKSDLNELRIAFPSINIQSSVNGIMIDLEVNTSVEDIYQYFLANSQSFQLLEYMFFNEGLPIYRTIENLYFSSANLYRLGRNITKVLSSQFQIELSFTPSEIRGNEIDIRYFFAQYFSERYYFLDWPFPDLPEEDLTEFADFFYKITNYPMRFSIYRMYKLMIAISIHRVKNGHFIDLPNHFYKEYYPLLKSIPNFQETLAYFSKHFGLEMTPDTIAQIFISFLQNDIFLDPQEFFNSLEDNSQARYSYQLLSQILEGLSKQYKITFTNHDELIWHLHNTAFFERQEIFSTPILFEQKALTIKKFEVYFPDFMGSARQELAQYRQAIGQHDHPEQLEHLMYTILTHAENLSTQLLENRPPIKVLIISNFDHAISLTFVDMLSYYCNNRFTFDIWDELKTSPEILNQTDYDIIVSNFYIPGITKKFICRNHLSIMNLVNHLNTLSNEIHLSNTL

[2] = target: T2, MgaSpn-His (Streptococcus pneumoniae R6) (UniProt Q8DNN5); assay: DNase I footprinting
T2 sequence: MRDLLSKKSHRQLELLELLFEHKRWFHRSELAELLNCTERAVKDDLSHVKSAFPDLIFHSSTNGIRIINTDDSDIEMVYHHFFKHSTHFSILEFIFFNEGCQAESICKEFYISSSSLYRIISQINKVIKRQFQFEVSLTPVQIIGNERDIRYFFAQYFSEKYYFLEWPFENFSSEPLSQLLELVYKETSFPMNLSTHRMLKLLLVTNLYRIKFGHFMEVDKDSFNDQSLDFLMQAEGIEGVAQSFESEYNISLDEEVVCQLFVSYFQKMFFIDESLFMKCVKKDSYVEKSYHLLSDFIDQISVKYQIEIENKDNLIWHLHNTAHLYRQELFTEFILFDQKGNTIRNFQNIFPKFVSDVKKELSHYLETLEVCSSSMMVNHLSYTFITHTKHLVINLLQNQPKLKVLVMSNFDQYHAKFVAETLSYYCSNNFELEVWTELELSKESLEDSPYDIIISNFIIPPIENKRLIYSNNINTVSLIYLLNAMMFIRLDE

[3] = target: T2, MgaSpn-His (Streptococcus pneumoniae R6); assay: EMSA
[4] = target: T1, PclR-His (Streptococcus pneumoniae R6); assay: EMSA

Row | Sequence | binding [1] | binding [2] | binding [3] | binding [4]
1 | CAAATTCTTTAATTGTTGCTATTATATAATTTTTAAAATTAAAAATATAATCTTTAGACTTGAATTTGATTCTGTATTCACGCCCTCAATAGACGGTAAAATAAGAAAATTGTTTATATATTGTCTCCGTAGTGTTATTATACGAAATAAAAGATTTTAGGAAAAGTCGTTATATCATGCTATACCTATTCTTTGTGGTATAATTGCAAGAGGTTTAATCCG (double strand) [222-bp P1623B promoter fragment] | no binding |  |  | 
2 | CGGCTAGTTCATGTAATTTCATCCAATTACGATTCTGAATTAGGGTTTCCATTAAGCGTAATTGTCTTTGAACTTTTGTGGATAAAAGGTTTCTCATACGGGTATTTCCTCCATAATTCATTATATCTTTTTTTGTCTAAGTAGTATAAAAAAATTAGAGCAAGAAAATTGTCGTTAGTAATCGGAAAAATTAGAATAATATAAGTGGCTTTTAAGTGCAAAAACAGAATATATTAATTGTTCAGAAAATATTGATTAATGCCTCAAATAGTTGTACATTG (double strand) [281-bp PpclA promoter fragment] | binds | binds |  | 
3 | CTCCTAGATAGTATTTTATAGTTTACAATGTACAACTATTTGAGGCATTAATCAATATTTTCTGAACAATTAATATATTCTGTTTTTGCACTTAAAAGCCACTTATATTATTCTAATTTTTCCGATTACTAACGACAATTTTCTTGCTCTAATTTTTTTATACTACTTAGACAAAAAAAGATATAATGAATTATGGAGGAAATACCCGTATGAGAAACCTTTTATCCACAAAAGTTCAAAGACAATTACGCTTAATGGAAACCCTAATTC (double strand) [270-bp PpclA promoter fragment] | binds | binds | binds | binds
